# Patent publication US9290544B2, “Methods for making and using molecular switches involving circular permutation” (priority 2004, dated 2016)
# Like-named read-outs stand apart in the source and are kept apart here.
# B1: BLA: penicillin-hydrolyzing enzyme TEM1 β-lactamase, parent enzyme of the switches (protein, UniProt P62593 24-286, looked up)
# Beta-lactamase TEM: HPETLVKVKDAEDQLGARVGYIELDLNSGKILESFRPEERFPMMSTFKVLLCGAVLSRVDAGQEQLGRRIHYSQNDLVEYSPVTEKHLTDGMTVRELCSAAITMSDNTAANLLLTTIGGPKELTAFLHNMGDHVTRLDRWEPELNEAIPNDERDTTMPAAMATTLRKLLTGELLTLASRQQLIDWMEADKVAGPLLRSALPAGWFIADKSGAGERGSRGIIAALGPDGKPSRIVVIYTTGSQATMDERNRQIAEIGASLIKHW
# Columns and labels:
# [1] = Nitrocefin hydrolysis in soluble fraction of cell lysates with and without 5 mM maltose (screen and confirmation of positives); format: biochemical; details: 50 μM nitrocefin; 5 mM maltose; 100 mM sodium phosphate buffer, pH 7.0
# Protocol: Next, 50 μl of PopCulture (Novagen) and 2.5 unit of benzonase nuclease was added to each well and incubated for 15 minutes at room temperature to lyse the cells. The cells debris and any unlysed cells were pelleted by centrifugation and supernatant was recovered. In 96-well format, 60 μl of lysate was assayed for hydrolysis of nitrocefin (50 μM) by monitoring the increase in absorbance at 490 nm in 100 mM sodium phosphate buffer, pH 7.0, both with and without 5 mM maltose. Any lysate in which there was a difference in rate of more than 2-fold (between with and without maltose) was selected for retesting and further investigation.
# Library members identified as having more than 200% switching activity in the 96-well plate screen were grown 24-48 hours in 100 ml LB media in 500 ml shaker flasks at 22° C. without IPTG. The cells were pelleted and resuspended in 8 ml assay buffer (100 mM sodium phosphate buffer, pH 7.0) and lysed by French press. The soluble fraction of this lysate was assayed for hydrolysis of nitrocefin (50 μM) at 22° C. as previously described (Guntas and Ostermeier 2004) both with and without 5 mM maltose. Initial rates were determined from absorbance at 486 nm monitored as a function of time. The enzyme was incubated at the assay temperature in the absence or presence of 5 mM maltose for four minutes prior to performing the assay. All assays contained 100 mM sodium phosphate buffer, pH 7.0. Library members for which there was a difference in the initial rate of more than about 2-fold were sequenced (Table 4). Switches RG-5-169 and RG-200-13 were also assayed in the presence of 5 mM sucrose or 5 mM glucose.
# [2] = Magnitude of switching in soluble fraction of cell lysates, Libraries 2-7 (FIG. 13); format: biochemical; details: room temperature, 50 μM nitrocefin
# Protocol: Libraries were plated on LB plates containing […] at the indicated concentrations of ampicillin and incubated at 37° C. overnight. From these plates, colonies were picked to inoculate 1 ml LB media (supplemented with 50 μg/ml chloramphenicol and 1 mM IPTG) in 96-well format. Lysates from these cultures were assayed for nitrocefin hydrolysis activity in the presence and absence of maltose as described above.
# Libraries 2-7 were plated on different levels of ampicillin in the presence of 50 mM maltose. Colonies that grew were used to inoculate 96-well plates. The resulting cultures were lysed and assayed at room temperature for nitrocefin hydrolysis in the presence and absence of maltose in 96-well format.
# FIG. 13 is a schematic depiction of the library construction schemes for Libraries 2-7, and of particular switches identified from these libraries. The arrowheads indicate the sites of insertion. Multiple arrowheads on one gene indicate random insertion sites. Dashed arrows indicate a particular switch on which successive libraries were based. The magnitude of switching was determined on the soluble fraction of cell lysates at room temperature using 50 μM nitrocefin. For switches with a rate increase in the presence of maltose, the ratio is of “with maltose” to “without maltose” (indicated by no sign in front of the value). […]
# [3] = Steady state kinetics of nitrocefin hydrolysis, purified RG13 proteins, 25° C.; format: biochemical; details: for Km / kcat: nitrocefin
# Protocol: All kinetic assays were performed at 25° C. in the presence of 100 mM sodium phosphate buffer, pH 7.0. Ten μl of enzyme stock was added to 1.59 ml buffer (containing the saccharide, if desired). After incubation for 30 seconds, 0.4 ml of 5× substrate was added and the absorbance at the appropriate wavelength was recorded using the Cary50 UV-VIS spectrophotometer. The wavelength monitored was 486 nm, 240 nm, and 232 nm for nitrocefin, carbenicillin, and ampicillin respectively. From the initial rate of reaction the kinetic constants were determined using Eadie-Hofstee plots. […] The rate data was consistent with a small hysteretic effect (Brennan et al. 1994) and not substrate inhibition as preincubation of the enzyme with the substrate for one minute prevented the lag from occurring upon addition of more substrate. Therefore, the steady state parameters for nitrocefin hydrolysis in the absence of maltose were determined by measuring the rate at 1-2 minutes (well after the lag) and correcting the substrate concentration by subtracting the amount of substrate hydrolyzed. In all cases the extent of reaction at the point the rate was measured was less than 25%. In the presence of maltose, no lag was observed.
# [4] = Apparent dissociation constant for maltose from initial rate of nitrocefin hydrolysis; format: binding; details: 25° C.
# Protocol: [formula] where ΔF is the change in fluorescence intensity, ΔFmax is the difference in fluorescence between no maltose and saturating amounts of maltose and [L] is the maltose concentration. The fluorescence quenching of RG13(1329W/A96W) upon addition of maltose was insufficient to accurately determine a Kd by this method. The dissociation constant for maltose and RG13(I329W) in the presence of saturating carbenicillin (2 mM) was determined by measuring the initial rate of carbenicillin hydrolysis as a function of maltose concentration. The apparent dissociation constant in the presence of subsaturating concentrations of nitrocefin (25 μM) for all three proteins was determined by measuring the initial rate of nitrocefin hydrolysis as a function of maltose concentration.
# DH5α-E cells = experiment: In vivo characterization: MIC of ampicillin for DH5α-E cells expressing the protein; format: cell-based, E. coli; details: LB plates, 37° C., 20 hours
# Protocol: Overnight inoculums of DH5α-E cells expressing RG13, BLA or BLA(W208G) were diluted into LB media and plated on LB plates, either in the absence or presence of 50 μM maltose, in the presence of increasing amounts of ampicillin. Ampicillin was present in the plates at the following concentrations: 0, 2, 4, 8, 16, 32, 64, 128, 256, 512, and 2000 μg/ml. Cells were plated at approximately 1000 CFU (no antibiotic) per plate. The plates were incubated at 37° C. for 20 hours. The minimum inhibitory concentration (MIC) was defined as the lowest ampicillin concentration at which no colonies were present, or that at which the number of colonies present was <1% of the number of colonies at the next lowest level of ampicillin.
# [5] = cited from earlier work
# [6] = effector maltose 5 mM (saturating)
# [7] = effector maltose 5 mM (saturating), 25° C.
molecule,measurement,setting,value
IFD-5-7: MBP[1-165]-BLA[110-286]-DKS-BLA[24-107]-MBP[164-370]; SEQ ID NO: 67,Switching effect: percent change in velocity of nitrocefin hydrolysis in the presence of 5 mM maltose,[1],+96%
IFD-5-15: MBP[1-165]-BLA[168-286]-DKS-BLA[24-170]-MBP[164-370]; SEQ ID NO: 71,Switching effect: percent change in velocity of nitrocefin hydrolysis in the presence of 5 mM maltose,[1],+97%
IFG-5-277: MBP[1-165]-BLA[218-286]-GSGGG-BLA[24-215]-MBP[164-370]; maltose is a negative effector; SEQ ID NO: 69,Switching effect: percent change in velocity of nitrocefin hydrolysis in the presence of 5 mM maltose,[1],−250%
same,Effect of maltose on catalytic activity (magnitude of switching),[2],negative effector
RG13 I329W/A96W: RG13 with MBP hinge mutations I329W and A96W; SEQ ID NO: 65,Km Ratio (with effector)/(without effector),[3]; effector maltose 5 mM,0.23 ± 0.04
same,kcat Ratio (with effector)/(without effector),[3]; [6],1.5 ± 0.2
same,kcat/Km Ratio (with effector)/(without effector),[3]; [6],6.4 ± 1.3
same,Km,[3]; [7],60 ± 4 µM
same,kcat,[3]; [7],530 ± 20 s⁻¹
same,Km,"[3]; no effector, pH 7.0, 25° C.",260 ± 40 µM
same,kcat,"[3]; no effector, pH 7.0, 25° C.",360 ± 40 s⁻¹
same,Kd,[4],170 ± 20 nM
B1,Minimum Inhibitory Concentration of Ampicillin,DH5α-E cells; 50 μM maltose,≧2000 μg/ml
same,Minimum Inhibitory Concentration of Ampicillin,DH5α-E cells; No maltose,≧2000 μg/ml
same,kcat,[5]; previously reported for BLA at 24° C. (Sigal et al. 1984),900 s⁻¹
same,Km,"[5]; previously reported for BLA at 24° C. (Sigal et al. 1984), read-out: Km",110 µM
same,kcat,"[5]; previously reported, 30° C. (Raquet et al. 1994)",930 s⁻¹
same,Km,"[5]; previously reported, 30° C. (Raquet et al. 1994), read-out: Km",52 µM
same,Km,"[5]; substrate ampicillin (Raquet et al. 1994), read-out: Km for TEM-1 β-lactamase",32 µM
same,Km,"[5]; substrate benzylpenicillin (Raquet et al. 1994), read-out: Km for TEM-1 β-lactamase",19 µM
same,Km,"[5]; substrate cephalothin (Raquet et al. 1994), read-out: Km for TEM-1 β-lactamase",246 µM
same,Km,"[5]; substrate oxacillin (Raquet et al. 1994), read-out: Km for TEM-1 β-lactamase",3 µM
same,Effect of maltose on wild type BLA enzymatic activity,[5]; with or without an equimolar amount of MBP (Guntas et al. 2004),no effect
